This note sets out measurements from US9683053B2 (Glenmark Pharmaceuticals S.A., dated 2017).

Common to all, as to assay: co-expression, protein-A, scanning densitometry of non-reduced SDS-PAGE
For one assay, the target named is VL-BT beta chain (Artificial Sequence).
Assay [1] addresses VH(anti-hCD19)-CH1 delta-BT beta c-myc_VL(anti-hCD19)-CK gamma molecule (half-molecule) (Artificial Sequence).
In assay [2] the target is VH(anti-hCD19)-CH13-BT beta c-myc_VL(anti-hCD19)-CK3 molecule (half-molecule) (Artificial Sequence).
VH(anti-hCD19)-CH13-BT beta c-myc_VL(anti-hCD19)-CK3 molecule (half-molecule) (Artificial Sequence), sequence (heavy, as listed by the source, chain 1 of 2): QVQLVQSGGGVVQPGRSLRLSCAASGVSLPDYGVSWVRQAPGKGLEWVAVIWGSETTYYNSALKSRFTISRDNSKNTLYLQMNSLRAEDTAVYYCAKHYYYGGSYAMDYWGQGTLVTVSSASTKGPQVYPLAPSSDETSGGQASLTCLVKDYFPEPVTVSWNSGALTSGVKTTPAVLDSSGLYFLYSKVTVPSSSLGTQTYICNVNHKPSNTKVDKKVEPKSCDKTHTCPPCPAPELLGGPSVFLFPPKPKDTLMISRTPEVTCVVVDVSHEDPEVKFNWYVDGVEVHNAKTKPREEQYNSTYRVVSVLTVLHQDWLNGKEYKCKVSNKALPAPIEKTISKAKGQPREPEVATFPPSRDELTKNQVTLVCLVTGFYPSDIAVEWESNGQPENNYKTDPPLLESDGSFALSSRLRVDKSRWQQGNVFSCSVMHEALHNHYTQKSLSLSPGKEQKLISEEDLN
VH(anti-hCD19)-CH13-BT beta c-myc_VL(anti-hCD19)-CK3 molecule (half-molecule) (Artificial Sequence), sequence (light, as listed by the source, chain 2 of 2): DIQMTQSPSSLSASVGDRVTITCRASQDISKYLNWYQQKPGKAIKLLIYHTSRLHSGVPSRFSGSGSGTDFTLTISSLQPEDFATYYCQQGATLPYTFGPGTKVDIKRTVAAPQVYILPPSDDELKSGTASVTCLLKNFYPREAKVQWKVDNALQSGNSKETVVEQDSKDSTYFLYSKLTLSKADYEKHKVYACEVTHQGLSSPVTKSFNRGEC
Another assay addresses VL-BT beta F405A chain (Artificial Sequence).

VL-BT beta F405A chain (Artificial Sequence), sequence (chain, as listed by the source F405A F405A): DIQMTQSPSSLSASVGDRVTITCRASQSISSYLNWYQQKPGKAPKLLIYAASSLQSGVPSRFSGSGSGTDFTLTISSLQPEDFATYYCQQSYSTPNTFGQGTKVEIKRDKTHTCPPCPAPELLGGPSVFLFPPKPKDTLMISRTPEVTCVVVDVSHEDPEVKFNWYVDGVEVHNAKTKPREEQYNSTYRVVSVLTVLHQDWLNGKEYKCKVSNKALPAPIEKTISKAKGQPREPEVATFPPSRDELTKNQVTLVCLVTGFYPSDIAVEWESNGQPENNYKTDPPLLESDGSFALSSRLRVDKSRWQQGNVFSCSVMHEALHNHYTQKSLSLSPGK
VH(anti-hCD19)-CH1 delta-BT beta c-myc_VL(anti-hCD19)-CK gamma molecule (half-molecule) (Artificial Sequence), sequence (heavy, as listed by the source, chain 1 of 2): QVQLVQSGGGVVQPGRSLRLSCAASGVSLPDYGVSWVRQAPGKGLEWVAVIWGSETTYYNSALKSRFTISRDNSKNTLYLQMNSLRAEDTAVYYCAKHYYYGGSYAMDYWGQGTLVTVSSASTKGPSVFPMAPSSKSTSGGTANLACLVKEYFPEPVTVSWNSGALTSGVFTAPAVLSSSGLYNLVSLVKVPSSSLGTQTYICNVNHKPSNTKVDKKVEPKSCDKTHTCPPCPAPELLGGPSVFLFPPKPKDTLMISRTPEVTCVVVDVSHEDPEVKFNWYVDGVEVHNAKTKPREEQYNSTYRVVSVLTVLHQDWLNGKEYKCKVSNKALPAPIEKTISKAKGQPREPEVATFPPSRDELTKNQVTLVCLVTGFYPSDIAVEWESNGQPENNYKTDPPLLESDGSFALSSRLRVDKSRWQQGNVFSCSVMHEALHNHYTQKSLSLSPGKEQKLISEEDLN
VH(anti-hCD19)-CH1 delta-BT beta c-myc_VL(anti-hCD19)-CK gamma molecule (half-molecule) (Artificial Sequence), sequence (light, as listed by the source, chain 2 of 2): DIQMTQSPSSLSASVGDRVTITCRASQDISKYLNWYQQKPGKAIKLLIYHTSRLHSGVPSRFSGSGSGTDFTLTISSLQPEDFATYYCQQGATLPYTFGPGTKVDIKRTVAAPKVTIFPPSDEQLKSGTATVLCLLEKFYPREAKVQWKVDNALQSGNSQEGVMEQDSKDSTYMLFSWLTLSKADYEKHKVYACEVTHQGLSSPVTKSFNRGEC
VL-BT beta chain (Artificial Sequence), sequence (chain, as listed by the source): as the sequence (chain, as listed by the source F405A F405A) above, with A293C counted along it

B1: BT alpha His chain (other)
chain: DKTHTCPPCPAPELLGGPSVFLFPPKPKDTLMISRTPEVTCVVVDVSHEDPEVKFNWYVDGVEVHNAKTKPREEQYNSTYRVVSVLTVLHQDWLNGKEYKCKVSNKALPAPIEKTISKAKGQPREPQVYTLPPSRDELTKNQVKLVCLVTGFYPSDIAVEWESNGQPENNYYTTPPVLDSDGSFSLVSWLNVDKSRWQQGNVFSCSVMHEALHNHYTQKSLSLSPGKHHHHHH
In the case of B1, the “hetero-dimer percentage of the protein-A purified material” value in the assay with VL-BT beta chain is at least 76.1%; in assay [1] it was at least 50%; in assay [2], at least 51.9%; in the assay with VL-BT beta F405A chain it was at least 80.7%.
